Results as given in the supplement of paper PMC10567573.

B1: TPD52L1 (parent)
chain: ISKKFGDMSYSIRHSISMPAMRNS
B2: NCK2 (parent)
chain: YTGPSSSGRFAGREWYYGNVTRHQ
B3: PTPN9 (parent)
chain: LKGAFPARLKKVLIVGAPIWFRVP

Variants of: B1
Experiment: protein stability index of a GFP-peptide fusion (GPS, HEK-293T) (PSI 1-6); higher = more stable
Conditions: c terminus: a fixed tail appended
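Note: lentivirally expressed fusions sorted by FACS into six bins by GFP to DsRed ratio, PSI derived from sequencing read proportions per bin multiplied by bin number.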

Protein stability index, by site and new letter:
F5: K 2.44, R 2.45, V 2.51, L 1.78, Y 2.56, H 2.72, P 2.85, E 3.06, G 3.29, A 2.97, N 2.48, I 2.37, Q 2.78, S 2.67, C 2.26, W 2.5, D 2.46, M 2.29, T 2.24
K3: L 2.83, E 2.62, I 3.53, P 2.63, S 2.25, W 3.69, N 2.5, Q 2.25, H 2.37, V 4.4, F 4.67, M 2.67, R 2.16, D 2.34, C 2.69, A 1.57, G 2.25, T 2.19, Y 2.8
G6: Y 1.86, R 2.35, D 2.28, F 1.97, M 2.62, I 1.6, E 2.31, V 2.15, N 2.15, P 2.75, K 1.74, A 1.65, Q 2.19, L 1.45, H 1.88, T 2.62, C 1.98, W 2.38, S 2.24
I1: T 2.9, H 2.42, Q 2.88, W 2.2, R 2.16, C 2.26, K 2.17, A 2.58, L 2.23, D 3.33, Y 1.54, P 2.89, F 1.88, V 3.17, N 2.87, E 2.9, M 2.33, G 2.65, S 3.16
D7: W 1.9, A 2.15, K 2.58, I 3.23, P 2.14, E 2.22, V 1.82, L 1.78, N 1.67, F 1.7, C 1.69, S 2.34, M 1.51, T 1.54, Q 2.04, G 1.68, R 2.21, H 1.77
K4: A 2.35, I 1.98, M 2.1, D 2.47, F 1.58, W 1.76, T 2.48, Q 2.09, S 2.71, G 2, R 2.65, C 2.36, L 1.52, Y 2.71, N 2.13, V 2.01, H 2.57, E 2.33, P 2.48
S2: N 2.37, F 1.74, Y 1.74, K 2.74, A 2.41, I 2.97, E 2.83, H 2.11, C 1.82, G 2.88, W 1.83, M 1.75, D 2.94, L 2.97, V 2.34, R 2.54, Q 2.37, P 2.89, T 2.21

Variants of: B2
Experiment: as above
Conditions: c terminus: a fixed tail appended

Protein stability index of substitutions, site by site:
H23: P 1.23, A 2.86, Y 1.42, L 2.81, R 1.53, V 1.56, K 2.33, C 1.07, S 1.79, T 1.46, F 1.79, D 2.52, E 1.47, N 2.09, W 2.71, M 1.56, Q 1.31, I 2, G 1.88
V20: L 1.88, R 2.42, Y 2.44, D 2.92, F 1.59, H 2.34, K 2.2, Q 1.83, A 1.73, E 1.67, G 2.57, I 2.71, T 1.75, C 2.13, P 1.81, N 1.98, S 1.66, M 1.85
R22: P 1.14, A 2, C 1.7, L 1.56, D 1.65, V 2.18, E 1.85, W 1.61, Q 2.17, N 2.35, H 1.33, Y 2.17, M 1.79, F 2.65, K 1.46, G 2.62
Q24: I 2.01, H 1.85, M 2.44, V 2.17, F 1.59, P 2.07, N 1.62, R 1.55, G 1.56, E 1.41, L 2.07, A 1.96, W 2.83, T 1.18, K 2.42, C 2.61, Y 1.72, D 2.51, S 2.25
N19: Y 1.91
T21: A 1.84, E 2.05, I 1.87, C 2.37, M 2.29, K 1.74, D 1.76, V 2.64, S 2.13, G 1.45, L 2.34, Y 1.91, F 2.53, N 2.4, H 1.9, R 1.68, P 2.06, Q 1.78

Variants of: B3
Experiment: as above
Conditions: c terminus: a fixed tail appended

Protein stability index, by site and new letter:
V12: G 1.27, T 2.61, A 3.43, N 3.54, R 2.3
K2: F 1.26, A 2.1, R 3.96, L 3.37, N 2.18
I19: E 2.64, H 1, T 4.11, S 1.95
A7: V 2.57, Q 2.24, F 3.16
P18: G 4.24, T 1.99, W 4.58, C 2.33
R22: D 1.87, H 2.47, L 4.03, P 3.02, G 2.34
A17: N 2.61, F 2.16, T 4.8, K 2.28, L 3.42
P24: E 1.31, L 3.02, K 3.06, D 4.03
I14: P 2.98, E 1.09, A 4.13, R 2.87, D 1.46, N 1.37, L 2.73
K11: F 4.03, H 1.99, E 2.73, I 2.21, G 1.84
G16: F 2.2, P 5.02, R 3.43, W 1.74, N 2.29, I 1.57
G3: S 3.35, A 2.89, D 3.16, K 3.39
L13: P 2.55, N 1.7, I 3.11, D 1.01, F 2.82
W20: F 2.45, E 3.74, K 2.56, H 4.59, S 2.41
F21: L 1.57, R 2.39, N 2.65
A4: L 3.88, Q 2.61, I 3.45, F 2.49, D 3.24
R8: N 2.74, S 3.94, F 2.79, M 2.46, W 2.35, G 2.76, L 2.2
V15: Y 2.25, S 1.37, K 1.37, H 2.46, T 2.46, W 1.27, F 2.48, Q 1.55, D 2.44
K10: S 3.47, Y 2.2, Q 2.94
V23: P 2.07, D 2.11
L9: K 2.57, V 4.71, F 1.64
F5: T 2.25, I 3.12, P 2.49, L 3.82
P6: M 1.86, H 2.28
L1: I 4.73, C 3.38, K 2.78, V 3.26, W 2.11, S 4.61
